B1: LC3C (microtubule-associated protein 1A/1B light chain 3C) (natural protein, human, UniProt Q9BXW4 1-126, looked up)
chain: MPPPQKIPSVRPFKQRKSLAIRQEEVAGIRAKFPNKIPVVVERYPRETFLPPLDKTKFLVPQELTMTQFLSIIRSRMVLRATEAFYLLVNNKSLVSMSATMAEIYRDYKDEDGFVYMTYASQETFG
B2: p62 WT-AIM peptide (peptide)
peptide: SGGDDDWTHLSS
notes: also called p62 AIM; source: synthetic peptide; bought: Genosphere Biotechnologies and Peptide Synthetics

How the values were obtained:
Conditions in all cases: both partners purified
[1] = target: B2; assay: native MS; ESI-MS competition binding under nondenaturing conditions: each hATG8 titrated into an equimolar mixture of WT-AIM and L341V-AIM peptides (each 10 μM); read-out is the ratio of peak intensities of unbound WT and L341V peptides; ratios given for 20 μM hATG8; two independent experiments
[2] = target: LC3A (microtubule-associated protein 1A/1B light chain 3A) (human, UniProt Q9H492 1-121); assay: ITC; MicroCal VP-ITC, 30 °C; protein 10 μM in the cell, 10 μl injections of peptide (100-150 μM); 25 mM potassium phosphate, 150 mM NaCl, pH 7.0; no reducing agent; one site binding model; two independent measurements
[3] = target: LC3B (microtubule-associated protein 1A/1B light chain 3B) (human, UniProt Q9GZQ8 1-120); assay: as above
[4] = target: B1; assay: as above
[5] = target: GABARAPL1 (human, UniProt Q9H0R8 1-117); assay: as above
[6] = target: T1, GABARAPL2 (human, UniProt P60520 1-117); assay: as above
T1 construct: GABARAPL2, human ATG8 protein of the GABARAP subfamily; 15N-labelled (13C,15N for assignment) in M9 minimal medium for the NMR experiments; Cloned into pGEX-4T-1 between BamHI and XhoI; thrombin cleavage may leave a few vector residues at the N-terminus (surmised); also called hATG8; source: E. coli BL21 (DE3), purified (Glutathione Sepharose, thrombin cleavage, ion exchange, gel filtration); not …
T1 sequence (P60520 whole entry): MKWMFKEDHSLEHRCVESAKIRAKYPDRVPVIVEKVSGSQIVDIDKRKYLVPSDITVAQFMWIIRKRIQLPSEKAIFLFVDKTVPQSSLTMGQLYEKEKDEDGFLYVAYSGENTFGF

Sequence of GABARAPL1 (Q9H0R8 whole entry): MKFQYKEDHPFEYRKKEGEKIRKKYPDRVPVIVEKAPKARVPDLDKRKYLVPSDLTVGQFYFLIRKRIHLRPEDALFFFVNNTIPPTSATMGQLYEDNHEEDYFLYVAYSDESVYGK

Binder | ratio of unbound WT:L341V AIM peptides at 20 μM hATG8 (reference: L341V-AIM) [1] | Kd [2] | dH [2] | stoichiometry N [2] | Kd [3] | dH [3] | Kd [4] | dH [4] | stoichiometry N [4] | Kd [5] | dH [5] | stoichiometry N [5] | dH [6] | stoichiometry N [6] | Kd [6]
B1 | > 0.95 |  |  |  |  |  |  |  |  |  |  |  |  |  | 
B2 |  | 4.55 µM | -17.9 kcal/mol | 1.05 | 3.83 µM | -10.7 kcal/mol | 16.8 µM | -3.59 kcal/mol | 0.82 | 3.23 µM | -5.61 kcal/mol | 0.86 | -2.43 kcal/mol | 1.07 | 
SGGDDDWTHVSS (also called L341V-mutant peptide; mutant AIM; source: synthetic peptide; bought: Genosphere Biotechnologies and Peptide Synthetics) [p62 L341V-AIM peptide] |  |  | -6.3 kcal/mol |  | 8.47 µM |  |  | -5.38 kcal/mol | 0.9 | 5.78 µM | -5.37 kcal/mol | 0.98 | -4 kcal/mol | 1.03 | 6.99 µM
